From article PMC6479361, “Characterization of a New DyP-Peroxidase from the Alkaliphilic Cellulomonad, Cellulomonas bogoriensis” (Molecules, 2019)

Substrate: Nc1c(S(=O)(=O)O)cc(Nc2cccc(S(=O)(=O)CCOS(=O)(=O)O)c2)c2c1C(=O)c1ccccc1C2=O
Assay: purified protein
Assay type: biochemical, Actinotalea bogoriensis
Settings: 100 µM H2O2, 100 mM citrate pH 5, 50 nM enzyme, His-SUMO fusion

B1: CboDyP (Actinotalea bogoriensis 69B4 = DSM 16987) (protein)
chain: VGAGAGARWGSRAPEAPQPARAAGPGDVVVPCHGEHQAGIVTPPPSFIALVALDLASTSDRASVERLLRVWTVDIERLTTGRPGLADSEPELALVPAALTVTVGFGPGLLTAAGLRHRAPAWLHPLPPFGIDRLDPAWCDGDVVLQVCADDRTTLAHAVRVLTKEAQGLASVRWVQRGFRRSPGISEPDGTSMRNLMGQVEGTANLDPRTDPDLLWHRDGEPGWLTGGTSMVVRRIAMNLDTWDELSRGAREATIGRTLRTGAPLTGRAEHDEPDLEALDDHGRPVIDLEAHIRRARPTQREETFLRRAYNYDEAPPPGRASDSGLLFVTYQRDVDAQFTPVQRRLDAADLLNEWTFPVGSAVFAVPGGWSAGEYVGQRLLEG
notes: codon-optimized synthetic gene, recombinant in E. coli NEB 10-beta; N-terminal His-SUMO fusion kept for kinetics, SUMO cleaved for crystals; Tat signal predicted, first 22 residues not visible in crystal; heme-containing; motif GXXEG
Km: 17 µM | kcat: 0.22 s⁻¹

B2: CboDyP (Actinotalea bogoriensis 69B4 = DSM 16987; E205D) (protein)
chain: VGAGAGARWGSRAPEAPQPARAAGPGDVVVPCHGEHQAGIVTPPPSFIALVALDLASTSDRASVERLLRVWTVDIERLTTGRPGLADSEPELALVPAALTVTVGFGPGLLTAAGLRHRAPAWLHPLPPFGIDRLDPAWCDGDVVLQVCADDRTTLAHAVRVLTKEAQGLASVRWVQRGFRRSPGISEPDGTSMRNLMGQVDGTANLDPRTDPDLLWHRDGEPGWLTGGTSMVVRRIAMNLDTWDELSRGAREATIGRTLRTGAPLTGRAEHDEPDLEALDDHGRPVIDLEAHIRRARPTQREETFLRRAYNYDEAPPPGRASDSGLLFVTYQRDVDAQFTPVQRRLDAADLLNEWTFPVGSAVFAVPGGWSAGEYVGQRLLEG
notes: as for B1
Km: 36 µM | kcat: 2.88 s⁻¹
